koff data for 1 molecule are collected here from patent publication US20210309745A1 (TAYU HUAXIA BIOTECH MEDICAL GROUP, published 2021).

The target in the assay is hPD-L1 (antigen of the Fortebio Octet assay) (human, UniProt Q9NZQ7 19-238, limits assumed). In words: BLI, Fortebio Octet; format not stated. From the text: The anti-hPD-L1 scFv-hFc Wt and scFv-hFc Mt antibodies were identified by SDS Page Gel […]. […] The binding affinities of the scFv-hFc antibodies to hPD-L1, as compared to that of the parental antibody were examined by FACS and the results are shown in FIG. 7. […] The binding affinities and kinetics of the scFv-hFc antibodies (scFv-hFc Wt and scFv-hFc Mt) to hPD-L1, as compared to that of the parental antibody (anti-PD-L1 IgG1), were further analyzed using the Fortebio Octet system.
For orientation: Biolayer interferometry detects binding as a change in optical thickness at a sensor tip.

Sequence of hPD-L1 (antigen of the Fortebio Octet assay) (Q9NZQ7 19-238 limits assumed): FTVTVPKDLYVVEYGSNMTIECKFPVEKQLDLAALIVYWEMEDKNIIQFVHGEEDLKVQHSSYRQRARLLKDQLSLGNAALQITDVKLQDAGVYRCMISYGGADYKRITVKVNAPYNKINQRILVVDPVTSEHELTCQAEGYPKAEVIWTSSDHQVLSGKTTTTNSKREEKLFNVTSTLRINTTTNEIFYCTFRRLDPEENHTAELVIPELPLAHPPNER

B1: anti-PD-L1 IgG1 (parental antibody of Example 3) (antibody, V domains shown)
VH: EVQLQQSGAELVKPGASVKLSCTASGFNIKDTYMYWVKQRPEQGLECIGRIDPANDNTKYDPKFQGKATITADTSSNTAYVQLASLTSEDTAVYYCARAKNLLNYFDYWGQGTTLTVSS
VL: DIQMTQSPSSLSASLGERVTLSCRASQEISGYLSWLQQKPDGTIKRLIYATSTLDSGVPKRFSGSRSGSDYSLTISSLESEDFADYYCLQYAIYPLTFGAGTKLELKR
notes: IgG1; also called parental control antibody
By koff is commonly meant the rate constant with which the complex falls apart. Read a low koff as a long-lived complex. On to B1, for which the koff came out at 2.72e-05 s⁻¹.
